Paper PMC10397247
One block for each binder: values may come before it.

Key:
Assay in all cases: two-hybrid library CCmax;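 further: natural log of median RNA to DNA barcode read ratio; higher means stronger binding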
[1] = target: T1, 4H2758-AA; settings: mean of both orientations
T1 chain: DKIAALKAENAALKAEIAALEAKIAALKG

[2] = target: T2, 4H2705-AA; settings: mean of both orientations
T2 chain: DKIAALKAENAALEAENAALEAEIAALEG

[3] = target: T3, 4H278-AA; settings: mean of both orientations
T3 chain: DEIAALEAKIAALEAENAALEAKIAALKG

[4] = target: T4, 4H3940-AA; settings: mean of both orientations
T4 chain: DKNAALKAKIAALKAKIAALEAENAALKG

[5] = target: T5, 4H2512-AA; settings: mean of both orientations
T5 chain: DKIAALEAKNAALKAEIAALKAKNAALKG

[6] = target: T6, 4H233-AA; settings: mean of both orientations
T6 chain: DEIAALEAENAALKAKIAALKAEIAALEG

[7] = target: T7, 4H3134-AA; settings: mean of both orientations
T7 chain: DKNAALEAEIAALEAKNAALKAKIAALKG

[8] = target: T8, 4H2687-AA; settings: mean of both orientations
T8 chain: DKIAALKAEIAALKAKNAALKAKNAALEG

[9] = target: T9, 4H775-AA
T9 chain: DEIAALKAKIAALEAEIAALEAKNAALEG

[10] = target: T10, 4H2646-AA; settings: mean of both orientations
T10 chain: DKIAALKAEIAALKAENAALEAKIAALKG

[11] = target: T11, 4H3625-AA; settings: mean of both orientations
T11 chain: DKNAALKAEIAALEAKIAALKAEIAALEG

[12] = target: T12, 4H390-AA; settings: mean of both orientations
T12 chain: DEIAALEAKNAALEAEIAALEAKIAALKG

[13] = target: T13, 4H3409-AA; settings: mean of both orientations
T13 chain: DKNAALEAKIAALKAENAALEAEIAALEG

[14] = target: T14, 4H2985-AA; settings: mean of both orientations
T14 chain: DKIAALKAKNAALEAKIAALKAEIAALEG

[15] = target: T15, 4H816-AA; settings: mean of both orientations
T15 chain: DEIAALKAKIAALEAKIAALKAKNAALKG

[16] = target: T16, 4H2873-AA; settings: mean of both orientations
T16 chain: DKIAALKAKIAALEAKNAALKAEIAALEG

[17] = target: T17, 4H2187-AA
T17 chain: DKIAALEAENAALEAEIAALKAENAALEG

[18] = target: T18, 4H510-AA; settings: mean of both orientations
T18 chain: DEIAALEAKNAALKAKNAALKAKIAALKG

[19] = target: T19, 4H87-AA; settings: mean of both orientations
T19 chain: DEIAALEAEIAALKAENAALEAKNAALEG

[20] = target: T20, 4H2592-AA; settings: mean of both orientations
T20 chain: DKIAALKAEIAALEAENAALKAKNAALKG

[21] = target: 4H_GCN4
[22] = target: T21, 4H1828-AA
T21 chain: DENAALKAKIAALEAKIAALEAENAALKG

[23] = target: T22, 4H2343-AA; settings: mean of both orientations
T22 chain: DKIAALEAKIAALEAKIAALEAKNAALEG

[24] = target: T23, 4H3073-AA; settings: mean of both orientations
T23 chain: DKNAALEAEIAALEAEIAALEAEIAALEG

[25] = target: T24, 4H_APH
T24 chain: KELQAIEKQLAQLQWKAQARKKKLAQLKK

[26] = target: T25, 4H3001-AA; settings: mean of both orientations
T25 chain: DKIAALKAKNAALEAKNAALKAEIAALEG

[27] = target: T26, 4H3438-AA; settings: mean of both orientations
T26 chain: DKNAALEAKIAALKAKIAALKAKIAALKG

[28] = target: T27, 4H2774-AA; settings: mean of both orientations
T27 chain: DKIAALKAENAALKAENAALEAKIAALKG

[29] = target: GCN2_T
[30] = target: T28, 4H452-AA; settings: mean of both orientations
T28 chain: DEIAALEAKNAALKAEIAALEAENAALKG

[31] = target: T29, 4H406-AA; settings: mean of both orientations
T29 chain: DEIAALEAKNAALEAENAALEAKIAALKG

[32] = target: T30, 4H2732-AA; settings: mean of both orientations
T30 chain: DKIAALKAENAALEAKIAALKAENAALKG

[33] = target: T31, 4H2330-AA; settings: mean of both orientations
T31 chain: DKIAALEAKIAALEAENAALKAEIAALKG

[34] = target: T32, 4H347-AA; settings: mean of both orientations
T32 chain: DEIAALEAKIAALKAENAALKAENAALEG

[35] = target: T33, 4H2931-AA; settings: mean of both orientations
T33 chain: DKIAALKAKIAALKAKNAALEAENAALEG

[36] = target: T34, 4H3015-AA; settings: mean of both orientations
T34 chain: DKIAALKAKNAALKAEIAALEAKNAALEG

[37] = target: T35, 4H2253-AA; settings: mean of both orientations
T35 chain: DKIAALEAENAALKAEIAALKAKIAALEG

[38] = target: T36, 4H56-AA; settings: mean of both orientations
T36 chain: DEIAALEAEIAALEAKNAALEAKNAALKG

[39] = target: T37, 4H249-AA; settings: mean of both orientations
T37 chain: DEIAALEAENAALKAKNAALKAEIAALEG

[40] = target: T38, 4H1930-AA; settings: mean of both orientations
T38 chain: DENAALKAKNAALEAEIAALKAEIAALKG

[41] = target: T39, 4H2124-AA; settings: mean of both orientations
T39 chain: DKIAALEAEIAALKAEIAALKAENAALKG

[42] = target: T40, 4H_BCR; settings: mean of both orientations
T40 chain: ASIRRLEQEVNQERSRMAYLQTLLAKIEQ

[43] = target: T41, 4H2165-AA; settings: mean of both orientations
T41 chain: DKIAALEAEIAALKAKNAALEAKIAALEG

[44] = target: T42, 4H2466-AA; settings: mean of both orientations
T42 chain: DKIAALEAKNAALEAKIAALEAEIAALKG

4H_GCN4, sequence (chain, as listed by the source): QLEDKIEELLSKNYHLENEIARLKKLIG

interaction score [1]: 0.853
interaction score [2]: -1.68
interaction score [3]: -0.772
interaction score [4]: -1.38
interaction score [5]: 2.24
interaction score [6]: -0.428
interaction score [7]: 1.47
interaction score [8]: -0.754
interaction score [9]: -1.71
interaction score [10]: -1.38
interaction score [11]: -1.12
interaction score [12]: 0.639
interaction score [13]: -1.46
interaction score [14]: -0.684
interaction score [15]: -0.683
interaction score [16]: 0.406
interaction score [17]: -0.477
interaction score [18]: 0.192
interaction score [19]: -2.2
B1: 4H2187-AA (peptide)
chain: DKIAALEAENAALEAEIAALKAENAALEG

interaction score [20]: -0.581
interaction score [21]: -2.2
interaction score [22]: 1.34
interaction score [23]: -1.69
interaction score [24]: -1.08
interaction score [25]: -1.13
interaction score [26]: -1.55
interaction score [27]: -1.01
interaction score [28]: -1.37
interaction score [29]: -2.49
interaction score [30]: -1.35
interaction score [31]: -1.44
interaction score [32]: -1.51
interaction score [33]: -1.45
interaction score [34]: -0.947
interaction score [35]: -2.02
interaction score [36]: -1.83
interaction score [37]: -1.32
interaction score [38]: -1.03
interaction score [39]: -1.5
interaction score [40]: -1.5
interaction score [41]: -1.65
interaction score [42]: -2.28
interaction score [43]: -1.37
interaction score [44]: -1.4
B2: 4H1828-AA (peptide)
chain: DENAALKAKIAALEAKIAALEAENAALKG
